This passage reports stoichiometry N results from article PMC10680838.

The assay has as its target DcpA (Agrobacterium tumefaciens C58). Kind of assay: cross-linking.

Usually stoichiometry N stands for the number of molecules, sites or subunits per partner or assembly. The substance PruR (natural protein) yielded a stoichiometry N of 1.
